According to the supplement of paper PMC9112550, “Optimization of the antimicrobial peptide Bac7 by deep mutational scanning” (BMC Biology, 2022):

Tested on: Escherichia coli TOP10
Test: shrunken log2 fold change of peptide-encoding DNA abundance (4.5 h post-induction vs induction); higher = less antimicrobial activity (less host growth inhibition)
Details: time post-induction: 4.5 h; library: site-saturation at positions 5, 18, 19, 20
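Note: peptides expressed intracellularly from a pBAD plasmid library in pooled LB shake-flask culture, induced with 0.3% L-arabinose, DNA abundance read by NGS, three biological replicates, DESeq2 with apeglm shrinkage.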

| Sequence | shrunken log2 fold change |
| --- | --- |
| RRIRGRPPRLPRPRPRPHQEPRP | 0.305 |
| RRIRKRPPRLPRPRPRPHMAPRP | -0.448 |
| RRIRERPPRLPRPRPRPRFSPRP | -0.0175 |
| RRIRGRPPRLPRPRPRPFSRPRP | 0.612 |
| RRIRMRPPRLPRPRPRPDAPPRP | 3.16 |
| RRIRIRPPRLPRPRPRPTMLPRP | -0.487 |
| RRIRHRPPRLPRPRPRPREWPRP | 0.0987 |
| RRIRIRPPRLPRPRPRPMVAPRP | -0.14 |
| RRIRCRPPRLPRPRPRPCKNPRP | -0.194 |
| RRIRDRPPRLPRPRPRPSNAPRP | -0.184 |
| RRIRGRPPRLPRPRPRPIGYPRP | -0.017 |
| RRIRWRPPRLPRPRPRPCCWPRP | 0.438 |
| RRIRKRPPRLPRPRPRPFKWPRP | 0.33 |
| RRIRDRPPRLPRPRPRPLCIPRP | 0.162 |
| RRIRNRPPRLPRPRPRPQNAPRP | -0.011 |
| RRIRMRPPRLPRPRPRPNFSPRP | 0.0634 |
| RRIRIRPPRLPRPRPRPFASPRP | -0.675 |
| RRIRMRPPRLPRPRPRPTSSPRP | 0.148 |
| RRIRARPPRLPRPRPRPHQSPRP | 0.265 |
| RRIRERPPRLPRPRPRPLAGPRP | -0.113 |
| RRIRERPPRLPRPRPRPTKIPRP | -0.19 |
| RRIRYRPPRLPRPRPRPGDGPRP | 0.0695 |
| RRIRIRPPRLPRPRPRPRAQPRP | 0.27 |
| RRIRARPPRLPRPRPRPLNGPRP | 0.0986 |
| RRIRERPPRLPRPRPRPTNWPRP | 0.0202 |

| Sequence | shrunken log2 fold change |
| --- | --- |
| RRIRARPPRLPRPRPRPAGVPRP | 0.45 |
| RRIRLRPPRLPRPRPRPRQSPRP | -0.0892 |
| RRIRARPPRLPRPRPRPTRSPRP | 0.258 |
| RRIRRRPPRLPRPRPRPGRKPRP | 0.332 |
| RRIRFRPPRLPRPRPRPFVLPRP | -0.532 |
| RRIRSRPPRLPRPRPRPCAPPRP | 0.0418 |
| RRIRLRPPRLPRPRPRPQTGPRP | -0.247 |
| RRIRWRPPRLPRPRPRPSGQPRP | -0.0599 |
| RRIRTRPPRLPRPRPRPINYPRP | -0.502 |
| RRIRTRPPRLPRPRPRPIMWPRP | 0.0465 |
| RRIRWRPPRLPRPRPRPPWQPRP | 0.289 |
| RRIRCRPPRLPRPRPRPCLYPRP | -0.117 |
| RRIRIRPPRLPRPRPRPARCPRP | 0.0563 |
| RRIRFRPPRLPRPRPRPFYHPRP | -0.727 |
| RRIRPRPPRLPRPRPRPWLQPRP | -0.064 |
| RRIRYRPPRLPRPRPRPYEVPRP | -0.343 |
| RRIRSRPPRLPRPRPRPAAHPRP | 0.154 |
| RRIRARPPRLPRPRPRPIIMPRP | -0.258 |
| RRIRDRPPRLPRPRPRPSRIPRP | -0.307 |
| RRIRPRPPRLPRPRPRPTAFPRP | 0.238 |
| RRIRTRPPRLPRPRPRPEHQPRP | 0.127 |
| RRIRGRPPRLPRPRPRPKPMPRP | 0.419 |
| RRIRMRPPRLPRPRPRPCMNPRP | -0.217 |
| RRIRERPPRLPRPRPRPQIDPRP | -0.046 |
| RRIRSRPPRLPRPRPRPYMVPRP | -0.497 |

| Sequence | shrunken log2 fold change |
| --- | --- |
| RRIRQRPPRLPRPRPRPDLIPRP | 0.0281 |
| RRIRTRPPRLPRPRPRPNANPRP | -0.0879 |
| RRIRIRPPRLPRPRPRPGHWPRP | 0.0615 |
| RRIRCRPPRLPRPRPRPEVCPRP | 0.0143 |
| RRIRIRPPRLPRPRPRPWITPRP | -0.917 |
| RRIRERPPRLPRPRPRPKWCPRP | -0.0117 |
| RRIRLRPPRLPRPRPRPHKTPRP | 0.0373 |
| RRIRARPPRLPRPRPRPWFVPRP | -0.0746 |
| RRIRRRPPRLPRPRPRPCTMPRP | -0.451 |
| RRIRPRPPRLPRPRPRPWREPRP | -0.00316 |
| RRIRTRPPRLPRPRPRPEMAPRP | 0.484 |
| RRIRIRPPRLPRPRPRPNICPRP | -0.147 |
| RRIRVRPPRLPRPRPRPQSMPRP | 0.229 |
| RRIRMRPPRLPRPRPRPPPYPRP | 1.15 |
| RRIRHRPPRLPRPRPRPWDNPRP | 0.0451 |
| RRIRCRPPRLPRPRPRPQHMPRP | -0.74 |
| RRIRIRPPRLPRPRPRPPNTPRP | -0.464 |
| RRIRRRPPRLPRPRPRPWSYPRP | -0.573 |
| RRIRPRPPRLPRPRPRPPFWPRP | 0.767 |
| RRIRLRPPRLPRPRPRPSYKPRP | -0.456 |
| RRIRTRPPRLPRPRPRPLYTPRP | -0.322 |
| RRIRGRPPRLPRPRPRPENSPRP | 0.678 |
| RRIRVRPPRLPRPRPRPWLMPRP | -0.136 |
| RRIRCRPPRLPRPRPRPSWYPRP | -0.675 |
| RRIRYRPPRLPRPRPRPTSPPRP | -0.0595 |

| Sequence | shrunken log2 fold change |
| --- | --- |
| RRIRIRPPRLPRPRPRPIWEPRP | -0.0114 |
| RRIRGRPPRLPRPRPRPYVEPRP | -0.00776 |
| RRIRKRPPRLPRPRPRPAVMPRP | 0.881 |
| RRIRKRPPRLPRPRPRPLRSPRP | 0.962 |
| RRIRYRPPRLPRPRPRPHPWPRP | -0.542 |
| RRIRMRPPRLPRPRPRPVFDPRP | 0.184 |
| RRIRARPPRLPRPRPRPTHVPRP | 0.813 |
| RRIRMRPPRLPRPRPRPNYSPRP | -0.416 |
| RRIRQRPPRLPRPRPRPANVPRP | -0.105 |
| RRIRRRPPRLPRPRPRPPCPPRP | 0.641 |
| RRIRNRPPRLPRPRPRPAVYPRP | -0.0398 |
| RRIRNRPPRLPRPRPRPYWGPRP | 0.0237 |
| RRIRRRPPRLPRPRPRPEALPRP | 0.115 |
| RRIRIRPPRLPRPRPRPTPFPRP | -0.133 |
| RRIRCRPPRLPRPRPRPKAKPRP | 0.0298 |
| RRIRIRPPRLPRPRPRPFDSPRP | 0.0157 |
| RRIRTRPPRLPRPRPRPIPYPRP | -0.0288 |
| RRIRERPPRLPRPRPRPSLTPRP | -0.699 |
| RRIRDRPPRLPRPRPRPGKSPRP | 0.0637 |
| RRIRARPPRLPRPRPRPLAHPRP | 0.296 |
| RRIRSRPPRLPRPRPRPRWHPRP | 0.111 |
| RRIRLRPPRLPRPRPRPRGEPRP | 0.207 |
| RRIRARPPRLPRPRPRPNAFPRP | 0.424 |
| RRIRPRPPRLPRPRPRPNCQPRP | 0.419 |
| RRIRSRPPRLPRPRPRPSEYPRP | -0.306 |

| Sequence | shrunken log2 fold change |
| --- | --- |
| RRIRVRPPRLPRPRPRPDDHPRP | -0.106 |
| RRIRMRPPRLPRPRPRPIGAPRP | 0.739 |
| RRIRLRPPRLPRPRPRPFGEPRP | 0.084 |
| RRIRMRPPRLPRPRPRPERQPRP | 2.84 |
| RRIRHRPPRLPRPRPRPSGLPRP | 0.0123 |
| RRIRCRPPRLPRPRPRPRASPRP | 0.282 |
| RRIRSRPPRLPRPRPRPGHFPRP | -0.0564 |
| RRIRIRPPRLPRPRPRPLLIPRP | -0.485 |
| RRIRTRPPRLPRPRPRPFQNPRP | 0.0326 |
| RRIRVRPPRLPRPRPRPCQQPRP | 0.00938 |
| RRIRERPPRLPRPRPRPCSEPRP | 0.0641 |
| RRIRRRPPRLPRPRPRPPSGPRP | 0.682 |
| RRIRLRPPRLPRPRPRPNYNPRP | -0.74 |
| RRIRPRPPRLPRPRPRPVMYPRP | -0.0963 |
| RRIRQRPPRLPRPRPRPPWAPRP | 0.577 |
| RRIRNRPPRLPRPRPRPISEPRP | 0.00895 |
| RRIRARPPRLPRPRPRPGFSPRP | 0.329 |
| RRIRIRPPRLPRPRPRPSDQPRP | -0.528 |
| RRIRTRPPRLPRPRPRPDWCPRP | -0.0271 |
| RRIRPRPPRLPRPRPRPHIVPRP | -0.481 |
| RRIRCRPPRLPRPRPRPGRHPRP | 0.105 |
| RRIRYRPPRLPRPRPRPFNEPRP | -1.01 |
| RRIRWRPPRLPRPRPRPNKTPRP | 0.0629 |
| RRIRWRPPRLPRPRPRPNMVPRP | -0.0148 |
| RRIRPRPPRLPRPRPRPFHDPRP | 0.000303 |

| Sequence | shrunken log2 fold change |
| --- | --- |
| RRIRCRPPRLPRPRPRPTFLPRP | -0.475 |
| RRIRMRPPRLPRPRPRPTTCPRP | 0.0613 |
| RRIRPRPPRLPRPRPRPSQWPRP | -0.0044 |
| RRIRVRPPRLPRPRPRPEHRPRP | -0.0452 |
| RRIRIRPPRLPRPRPRPGEHPRP | -0.0955 |
| RRIRNRPPRLPRPRPRPIFQPRP | -0.0287 |
| RRIRRRPPRLPRPRPRPTDEPRP | 0.355 |
| RRIRHRPPRLPRPRPRPELIPRP | -0.0454 |
| RRIRERPPRLPRPRPRPKQCPRP | -0.354 |
| RRIRQRPPRLPRPRPRPLIWPRP | 0.855 |
| RRIRMRPPRLPRPRPRPLDPPRP | 0.146 |
| RRIRRRPPRLPRPRPRPWRTPRP | -0.0112 |
| RRIRARPPRLPRPRPRPPSDPRP | 0.705 |
| RRIRTRPPRLPRPRPRPHYNPRP | -0.75 |
| RRIRIRPPRLPRPRPRPNKCPRP | -0.438 |
| RRIRDRPPRLPRPRPRPARCPRP | 0.446 |
| RRIRLRPPRLPRPRPRPWASPRP | -0.0355 |
| RRIRTRPPRLPRPRPRPWSDPRP | -0.0131 |
| RRIRYRPPRLPRPRPRPNHLPRP | -1.32 |
| RRIRFRPPRLPRPRPRPHQWPRP | -0.0612 |
| RRIRKRPPRLPRPRPRPWDVPRP | 0.0155 |
| RRIRCRPPRLPRPRPRPVLFPRP | -0.101 |
| RRIRLRPPRLPRPRPRPADIPRP | -0.00142 |
| RRIRERPPRLPRPRPRPGQYPRP | -0.113 |
| RRIRGRPPRLPRPRPRPNHHPRP | 0.491 |
